Common to all, as to assay: ELISA
For test [1], the target named is T1, denatured human collagen I (UniProt P02452 162-1218; P08123 80-1119).
Test [2] addresses T2, denatured human collagen type IV (UniProt P02462 173-1669; P08572 184-1712).
Test [3] addresses T2, denatured human collagen type IV. The source holds these as a separate data set.
The target of test [4] is T1, denatured human collagen I. The source holds these as a separate data set.

Like-named read-outs stand apart in the source and are kept apart here.

T2 sequence (P02462 173-1669, chain 1 of 2): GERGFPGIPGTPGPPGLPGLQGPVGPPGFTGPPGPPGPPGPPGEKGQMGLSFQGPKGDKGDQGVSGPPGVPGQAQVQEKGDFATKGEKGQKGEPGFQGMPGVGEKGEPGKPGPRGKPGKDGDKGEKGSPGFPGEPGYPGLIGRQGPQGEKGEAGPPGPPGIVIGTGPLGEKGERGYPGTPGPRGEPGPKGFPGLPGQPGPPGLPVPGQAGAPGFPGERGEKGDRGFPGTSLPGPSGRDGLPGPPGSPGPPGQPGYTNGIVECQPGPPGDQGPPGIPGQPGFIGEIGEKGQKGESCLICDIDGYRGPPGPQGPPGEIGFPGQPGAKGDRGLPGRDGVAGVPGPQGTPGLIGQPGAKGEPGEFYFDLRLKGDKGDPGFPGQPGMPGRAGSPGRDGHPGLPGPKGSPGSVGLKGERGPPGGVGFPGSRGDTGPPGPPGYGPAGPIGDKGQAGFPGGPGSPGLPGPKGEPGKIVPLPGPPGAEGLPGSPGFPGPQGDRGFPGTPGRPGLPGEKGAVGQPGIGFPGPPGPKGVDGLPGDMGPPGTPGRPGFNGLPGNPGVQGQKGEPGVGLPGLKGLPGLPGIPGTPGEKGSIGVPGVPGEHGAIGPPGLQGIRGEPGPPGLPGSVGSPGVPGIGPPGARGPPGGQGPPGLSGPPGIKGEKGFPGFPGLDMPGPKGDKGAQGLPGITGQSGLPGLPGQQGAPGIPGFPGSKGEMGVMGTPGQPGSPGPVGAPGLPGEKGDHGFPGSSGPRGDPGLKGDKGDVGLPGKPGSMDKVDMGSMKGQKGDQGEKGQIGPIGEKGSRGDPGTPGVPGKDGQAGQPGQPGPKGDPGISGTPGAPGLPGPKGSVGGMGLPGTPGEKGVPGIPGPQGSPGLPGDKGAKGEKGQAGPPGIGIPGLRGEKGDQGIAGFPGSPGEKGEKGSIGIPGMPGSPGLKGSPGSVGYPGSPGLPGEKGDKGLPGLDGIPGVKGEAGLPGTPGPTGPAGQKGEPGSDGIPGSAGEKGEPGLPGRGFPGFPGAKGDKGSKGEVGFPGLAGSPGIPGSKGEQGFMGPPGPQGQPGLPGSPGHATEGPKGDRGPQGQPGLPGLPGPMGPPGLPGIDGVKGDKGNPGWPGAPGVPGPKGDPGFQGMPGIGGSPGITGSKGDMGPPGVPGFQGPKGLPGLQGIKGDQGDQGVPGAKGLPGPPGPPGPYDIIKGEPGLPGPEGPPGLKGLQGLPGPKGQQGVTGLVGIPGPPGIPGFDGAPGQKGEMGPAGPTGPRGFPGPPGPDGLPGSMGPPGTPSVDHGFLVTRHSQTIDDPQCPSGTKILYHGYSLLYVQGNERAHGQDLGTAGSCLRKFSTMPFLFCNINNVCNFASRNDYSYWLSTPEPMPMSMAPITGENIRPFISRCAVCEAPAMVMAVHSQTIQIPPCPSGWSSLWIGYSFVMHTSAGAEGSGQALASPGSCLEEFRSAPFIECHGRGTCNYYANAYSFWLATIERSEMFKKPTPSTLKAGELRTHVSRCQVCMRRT
T2 sequence (P08572 184-1712, chain 2 of 2): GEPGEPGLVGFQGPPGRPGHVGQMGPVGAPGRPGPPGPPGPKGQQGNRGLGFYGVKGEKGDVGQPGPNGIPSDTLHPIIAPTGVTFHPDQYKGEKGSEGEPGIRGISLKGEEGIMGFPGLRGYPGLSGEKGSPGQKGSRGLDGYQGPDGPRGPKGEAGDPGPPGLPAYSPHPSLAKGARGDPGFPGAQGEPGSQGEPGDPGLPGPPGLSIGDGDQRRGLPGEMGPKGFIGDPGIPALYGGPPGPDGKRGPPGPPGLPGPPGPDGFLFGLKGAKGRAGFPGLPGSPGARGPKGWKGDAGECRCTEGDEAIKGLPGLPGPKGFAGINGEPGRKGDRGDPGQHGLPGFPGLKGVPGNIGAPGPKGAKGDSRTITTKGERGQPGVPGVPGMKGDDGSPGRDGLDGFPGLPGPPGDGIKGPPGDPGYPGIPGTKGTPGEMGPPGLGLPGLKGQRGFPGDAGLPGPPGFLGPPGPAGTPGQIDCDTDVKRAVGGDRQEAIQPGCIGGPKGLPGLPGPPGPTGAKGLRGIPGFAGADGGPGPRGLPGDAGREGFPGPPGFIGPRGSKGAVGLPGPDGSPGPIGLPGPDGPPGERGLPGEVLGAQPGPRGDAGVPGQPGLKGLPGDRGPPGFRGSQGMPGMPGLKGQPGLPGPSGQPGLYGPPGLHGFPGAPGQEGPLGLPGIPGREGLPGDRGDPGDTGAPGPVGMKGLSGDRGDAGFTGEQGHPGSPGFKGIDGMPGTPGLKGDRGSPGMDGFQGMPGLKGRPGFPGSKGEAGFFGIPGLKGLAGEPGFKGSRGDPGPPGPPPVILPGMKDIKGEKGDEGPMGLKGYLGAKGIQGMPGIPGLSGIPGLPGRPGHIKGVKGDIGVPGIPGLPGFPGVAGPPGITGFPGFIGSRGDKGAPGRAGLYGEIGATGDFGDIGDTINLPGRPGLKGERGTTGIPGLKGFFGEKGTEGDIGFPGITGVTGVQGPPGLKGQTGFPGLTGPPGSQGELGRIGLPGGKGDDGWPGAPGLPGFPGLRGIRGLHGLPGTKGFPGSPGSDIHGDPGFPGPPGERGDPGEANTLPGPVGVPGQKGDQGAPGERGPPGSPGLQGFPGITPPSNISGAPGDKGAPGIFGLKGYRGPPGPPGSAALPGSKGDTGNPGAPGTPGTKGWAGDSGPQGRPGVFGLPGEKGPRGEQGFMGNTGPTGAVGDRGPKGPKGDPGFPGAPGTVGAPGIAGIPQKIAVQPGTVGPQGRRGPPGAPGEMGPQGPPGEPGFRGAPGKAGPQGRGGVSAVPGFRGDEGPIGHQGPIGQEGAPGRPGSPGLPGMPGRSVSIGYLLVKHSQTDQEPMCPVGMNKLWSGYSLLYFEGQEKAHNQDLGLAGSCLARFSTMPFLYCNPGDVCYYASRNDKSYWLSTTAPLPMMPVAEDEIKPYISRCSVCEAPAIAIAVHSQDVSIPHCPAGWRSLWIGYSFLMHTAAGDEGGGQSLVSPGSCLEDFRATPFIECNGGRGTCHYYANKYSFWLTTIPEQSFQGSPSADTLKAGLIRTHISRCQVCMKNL
T1 sequence (P02452 162-1218 A1075T, chain 1 of 2): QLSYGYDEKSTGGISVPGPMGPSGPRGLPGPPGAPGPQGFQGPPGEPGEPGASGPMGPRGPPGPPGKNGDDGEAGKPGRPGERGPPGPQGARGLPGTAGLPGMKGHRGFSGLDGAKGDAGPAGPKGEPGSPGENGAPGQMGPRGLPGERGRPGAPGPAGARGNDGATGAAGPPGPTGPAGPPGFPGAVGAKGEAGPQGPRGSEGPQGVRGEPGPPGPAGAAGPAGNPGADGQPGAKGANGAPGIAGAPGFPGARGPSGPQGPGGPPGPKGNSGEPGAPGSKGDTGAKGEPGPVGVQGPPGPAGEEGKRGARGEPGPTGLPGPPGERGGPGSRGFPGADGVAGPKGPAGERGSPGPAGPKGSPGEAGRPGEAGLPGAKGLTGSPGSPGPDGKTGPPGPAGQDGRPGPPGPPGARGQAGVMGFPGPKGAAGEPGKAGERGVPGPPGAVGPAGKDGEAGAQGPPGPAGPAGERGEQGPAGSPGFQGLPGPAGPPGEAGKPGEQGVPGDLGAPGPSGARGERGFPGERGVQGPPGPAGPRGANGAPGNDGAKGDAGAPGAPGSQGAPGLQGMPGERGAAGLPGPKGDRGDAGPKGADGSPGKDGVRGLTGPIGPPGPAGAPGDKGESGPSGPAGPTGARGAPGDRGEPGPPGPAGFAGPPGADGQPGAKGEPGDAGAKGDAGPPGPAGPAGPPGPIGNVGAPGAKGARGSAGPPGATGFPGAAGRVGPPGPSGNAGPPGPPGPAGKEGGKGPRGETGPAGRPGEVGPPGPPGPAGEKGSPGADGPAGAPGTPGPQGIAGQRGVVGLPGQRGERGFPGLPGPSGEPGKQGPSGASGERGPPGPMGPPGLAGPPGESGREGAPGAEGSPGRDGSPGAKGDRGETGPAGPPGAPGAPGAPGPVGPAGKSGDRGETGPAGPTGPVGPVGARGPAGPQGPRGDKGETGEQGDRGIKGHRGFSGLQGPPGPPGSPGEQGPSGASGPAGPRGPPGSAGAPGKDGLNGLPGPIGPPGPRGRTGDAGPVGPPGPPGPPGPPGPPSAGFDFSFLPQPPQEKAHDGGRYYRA
T1 sequence (P08123 80-1119, chain 2 of 2): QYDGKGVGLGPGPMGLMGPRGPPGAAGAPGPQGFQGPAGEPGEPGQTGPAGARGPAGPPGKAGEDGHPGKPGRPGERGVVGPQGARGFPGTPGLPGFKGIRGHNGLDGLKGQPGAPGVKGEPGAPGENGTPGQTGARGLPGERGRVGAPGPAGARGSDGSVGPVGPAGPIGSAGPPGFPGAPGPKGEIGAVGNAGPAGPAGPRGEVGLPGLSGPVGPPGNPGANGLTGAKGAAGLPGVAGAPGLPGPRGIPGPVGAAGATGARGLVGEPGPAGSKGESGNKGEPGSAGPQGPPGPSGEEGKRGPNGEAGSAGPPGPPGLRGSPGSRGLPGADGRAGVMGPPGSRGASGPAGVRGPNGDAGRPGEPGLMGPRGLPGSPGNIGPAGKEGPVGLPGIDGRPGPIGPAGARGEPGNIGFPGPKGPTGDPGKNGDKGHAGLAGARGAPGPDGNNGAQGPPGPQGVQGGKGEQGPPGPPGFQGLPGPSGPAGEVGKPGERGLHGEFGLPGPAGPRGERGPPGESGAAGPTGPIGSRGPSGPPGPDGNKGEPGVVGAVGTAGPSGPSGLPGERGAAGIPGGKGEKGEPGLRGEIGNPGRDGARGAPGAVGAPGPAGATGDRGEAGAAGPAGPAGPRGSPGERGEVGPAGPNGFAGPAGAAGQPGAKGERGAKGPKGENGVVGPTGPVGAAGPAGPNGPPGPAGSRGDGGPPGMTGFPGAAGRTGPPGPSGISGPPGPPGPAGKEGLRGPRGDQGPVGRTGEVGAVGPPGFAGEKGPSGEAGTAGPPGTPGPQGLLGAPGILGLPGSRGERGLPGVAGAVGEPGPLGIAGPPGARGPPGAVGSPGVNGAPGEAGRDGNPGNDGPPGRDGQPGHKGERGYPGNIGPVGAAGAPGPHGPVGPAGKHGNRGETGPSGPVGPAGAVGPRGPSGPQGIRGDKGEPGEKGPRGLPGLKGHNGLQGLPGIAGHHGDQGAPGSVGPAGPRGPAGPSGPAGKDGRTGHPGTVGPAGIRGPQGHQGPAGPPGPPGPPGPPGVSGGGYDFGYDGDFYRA

B1: P27622716 (antibody)
chain 1: not shown
chain 2: DIVMTQTPLSLPVTPGEPASISCRSSQSIVSSWGNTYLEWYLQKPGQSPQLLIYKVSNRFSGVPDRFSGSGSGTDFTLKISRVEAEDVGVYYCFQGSHVPWTFGQGTKVEIKRTVAAPSVFIFPPSDEQLKSGTASVVCLLNNFYPREAKVQWKVDNALQSGNSQESVTEQDSKDSTYSLSSTLTLSKADYEKHKVYACEVTHQGLSSPVTKSFNRGEC
On to B1, for which the figures for the 50% effective concentration (EC50) in test [1] and in test [2] were 3.73 nM and 4.01 nM, respectively.

B2: P27202716 (antibody)
chain 1: not shown
chain 2: DIVMTQTPLSLPVTPGEPASISCRSSQSIVSSWGNTYLEWYLQKPGQSPQLLIYKVSNRFSGVPDRFSGSGSGTDFTLKISRVEAEDVGVYYCFQGSHVPWTFGQGTKVEIKRTVAAPSVFIFPPSDEQLKSGTASVVCLLNNFYPREAKVQWKVDNALQSGNSQESVTEQDSKDSTYSLSSTLTLSKADYEKHKVYACEVTHQGLSSPVTKSFNRGEC
B2 yielded a half-maximal effective concentration (EC50) in test [3] of 3.34 nM.

B3: P27912716 (antibody)
chain 1: not shown
chain 2: DIVMTQTPLSLPVTPGEPASISCRSSQSIVSSWGNTYLEWYLQKPGQSPQLLIYKVSNRFSGVPDRFSGSGSGTDFTLKISRVEAEDVGVYYCFQGSHVPWTFGQGTKVEIKRTVAAPSVFIFPPSDEQLKSGTASVVCLLNNFYPREAKVQWKVDNALQSGNSQESVTEQDSKDSTYSLSSTLTLSKADYEKHKVYACEVTHQGLSSPVTKSFNRGEC
In test [3], B3 yielded an EC50 of 4.97 nM.

B4: P28612716 (antibody)
chain 1: not shown
chain 2: DIVMTQTPLSLPVTPGEPASISCRSSQSIVSSWGNTYLEWYLQKPGQSPQLLIYKVSNRFSGVPDRFSGSGSGTDFTLKISRVEAEDVGVYYCFQGSHVPWTFGQGTKVEIKRTVAAPSVFIFPPSDEQLKSGTASVVCLLNNFYPREAKVQWKVDNALQSGNSQESVTEQDSKDSTYSLSSTLTLSKADYEKHKVYACEVTHQGLSSPVTKSFNRGEC
Turning to B4, in test [3], it took 2.63 nM to reach a half-maximal effect (EC50).

B5: P27962797 (antibody)
chain 1: not shown
chain 2: DIVMTQTPLSLPVTPGEPASISCRSSQSIVHSSGNTYLEWYLQKPGQSPQLLIYKVSNRFSGVPDRFSGSGSGTDFTLKISRVEAEDVGVYYCFQGSHVPWTFGQGTKVEIKRTVAAPSVFIFPPSDEQLKSGTASVVCLLNNFYPREAKVQWKVDNALQSGNSQESVTEQDSKDSTYSLSSTLTLSKADYEKHKVYACEVTHQGLSSPVTKSFNRGEC
In turn, B5 showed an EC50 in test [3] of 6.48 nM. This EC50 is about 2.5-fold higher than that of the molecule before.

B6: P27902713 (antibody)
chain 1: not shown
chain 2: DIVMTQTPLSLPVTPGEPASISCRSSQSIVHSNGNTYLEWYLQKPGQSPQLLIYKVSNRFSGVPDRFSGSGSGTDFTLKISRVEAEDVGVYYCFQGSHVPWTFGQGTKVEIKRTVAAPSVFIFPPSDEQLKSGTASVVCLLNNFYPREAKVQWKVDNALQSGNSQESVTEQDSKDSTYSLSSTLTLSKADYEKHKVYACEVTHQGLSSPVTKSFNRGEC
The molecule B6 yielded an EC50 in test [3] of 57.4 nM.

B7: P27152797 (antibody)
chain 1: not shown
chain 2: DIVMTQTPLSLPVTPGEPASISCRSSQSIVHSSGNTYLEWYLQKPGQSPQLLIYKVSNRFSGVPDRFSGSGSGTDFTLKISRVEAEDVGVYYCFQGSHVPWTFGQGTKVEIKRTVAAPSVFIFPPSDEQLKSGTASVVCLLNNFYPREAKVQWKVDNALQSGNSQESVTEQDSKDSTYSLSSTLTLSKADYEKHKVYACEVTHQGLSSPVTKSFNRGEC
Consider B7, for which the EC50 is 26 nM in test [4] and 9.3 nM in test [2].

B8: P27202713 (antibody)
chain 1: not shown
chain 2: DIVMTQTPLSLPVTPGEPASISCRSSQSIVHSNGNTYLEWYLQKPGQSPQLLIYKVSNRFSGVPDRFSGSGSGTDFTLKISRVEAEDVGVYYCFQGSHVPWTFGQGTKVEIKRTVAAPSVFIFPPSDEQLKSGTASVVCLLNNFYPREAKVQWKVDNALQSGNSQESVTEQDSKDSTYSLSSTLTLSKADYEKHKVYACEVTHQGLSSPVTKSFNRGEC
B8 yielded an EC50 in test [3] of 7.41 nM.

B9: P27202714 (antibody)
chain 1: not shown
chain 2: DIVMTQTPLSLPVTPGEPASISCRSSQSIVHSQGNTYLEWYLQKPGQSPQLLIYKVSNRFSGVPDRFSGSGSGTDFTLKISRVEAEDVGVYYCFQGSHVPWTFGQGTKVEIKRTVAAPSVFIFPPSDEQLKSGTASVVCLLNNFYPREAKVQWKVDNALQSGNSQESVTEQDSKDSTYSLSSTLTLSKADYEKHKVYACEVTHQGLSSPVTKSFNRGEC
B9: the EC50 in test [3] was found to be 30.4 nM. This EC50 is about 4.1-fold higher than that of the molecule before.

B10: P27952798 (antibody)
chain 1: not shown
chain 2: DIVMTQTPLSLPVTPGEPASISCRSSQSIVHSNANTYLEWYLQKPGQSPQLLIYKVSNRFSGVPDRFSGSGSGTDFTLKISRVEAEDVGVYYCFQGSHVPWTFGQGTKVEIKRTVAAPSVFIFPPSDEQLKSGTASVVCLLNNFYPREAKVQWKVDNALQSGNSQESVTEQDSKDSTYSLSSTLTLSKADYEKHKVYACEVTHQGLSSPVTKSFNRGEC
Molecule B10 had a half-maximal effective concentration (EC50) in test [3] of 18.4 nM.

B11: P27922716 (antibody)
chain 1: not shown
chain 2: DIVMTQTPLSLPVTPGEPASISCRSSQSIVSSWGNTYLEWYLQKPGQSPQLLIYKVSNRFSGVPDRFSGSGSGTDFTLKISRVEAEDVGVYYCFQGSHVPWTFGQGTKVEIKRTVAAPSVFIFPPSDEQLKSGTASVVCLLNNFYPREAKVQWKVDNALQSGNSQESVTEQDSKDSTYSLSSTLTLSKADYEKHKVYACEVTHQGLSSPVTKSFNRGEC
For B11, the EC50 in test [3] worked out at 4.5 nM.

B12: P27962798 (antibody)
chain 1: not shown
chain 2: DIVMTQTPLSLPVTPGEPASISCRSSQSIVHSNANTYLEWYLQKPGQSPQLLIYKVSNRFSGVPDRFSGSGSGTDFTLKISRVEAEDVGVYYCFQGSHVPWTFGQGTKVEIKRTVAAPSVFIFPPSDEQLKSGTASVVCLLNNFYPREAKVQWKVDNALQSGNSQESVTEQDSKDSTYSLSSTLTLSKADYEKHKVYACEVTHQGLSSPVTKSFNRGEC
On to B12, for which, in test [3], the EC50 was determined as 2.53 nM.

B13: P27652716 (antibody, V domains shown)
VH: QVTLKESGPALVKPTQTLTLTCTFSGFSLSTPGMGVWWIRQPPGEGLEWLADIWWDDNKYTNPSLKSRLTISKDTSKNQVVLTMTNMDPVDTATYYCARRANYGNPYYAQDYWGQGTTVTVSS
VL: DIVMTQTPLSLPVTPGEPASISCRSSQSIVSSWGNTYLEWYLQKPGQSPQLLIYKVSNRFSGVPDRFSGSGSGTDFTLKISRVEAEDVGVYYCFQGSHVPWTFGQGTKVEIKR
Turning to B13, the EC50 in test [1] came out at 11.9 nM; in test [2], 9.91 nM.

B14: P27572716 (antibody, V domains shown)
VH: EVQLVESGGGLVQPGGSLRLSCAASGFTFSTPGMGVWWVRQAPGKGLEWVADIWWDDNKYTNPSLKSRLTISRDNAKNSLYLQMNSLRAEDTAVYYCARRANYGNPYYAQDYWGQGTTVTVSS
VL: DIVMTQTPLSLPVTPGEPASISCRSSQSIVSSWGNTYLEWYLQKPGQSPQLLIYKVSNRFSGVPDRFSGSGSGTDFTLKISRVEAEDVGVYYCFQGSHVPWTFGQGTKVEIKR
Regarding B14, the EC50 stood at 20800 nM in test [4] and 18.8 nM in test [2].

B15: P27642716 (antibody, V domains shown)
VH: QVTLKESGPALVKPTQTLTLTCTFSGFSLSTPGMGVWWIRQPPGKGLEWLADIWWDDNKYTNPSLKSRLTISKDTSKNQVVLTMTNMDPVDTATYYCARRANYGNPYYAQDYWGQGTTVTVSS
VL: DIVMTQTPLSLPVTPGEPASISCRSSQSIVSSWGNTYLEWYLQKPGQSPQLLIYKVSNRFSGVPDRFSGSGSGTDFTLKISRVEAEDVGVYYCFQGSHVPWTFGQGTKVEIKR
Consider B15, for which the figures for the EC50 in test [1] and in test [2] were 2.39 nM and 1.69 nM, respectively.

B16: P27592716 (antibody, V domains shown)
VH: EVQLVESGGGLVQPGGSLRLSCAASGFSLSTPGMGVWWIRQAPGKGLEWLADIWWDDNKYTNPSLKSRLTISRDNAKNSLYLQMNSLRAEDTAVYYCARRANYGNPYYAQDYWGQGTTVTVSS
VL: DIVMTQTPLSLPVTPGEPASISCRSSQSIVSSWGNTYLEWYLQKPGQSPQLLIYKVSNRFSGVPDRFSGSGSGTDFTLKISRVEAEDVGVYYCFQGSHVPWTFGQGTKVEIKR
Regarding B16, the EC50 worked out at 2.44 nM in test [1] and 1.86 nM in test [2].

B17: P27582716 (antibody, V domains shown)
VH: EVQLVESGGGLVQPGGSLRLSCAASGFSLSTPGMGVWWIRQAPGKGLEWVADIWWDDNKYTNPSLKSRLTISRDNAKNSLYLQMNSLRAEDTAVYYCARRANYGNPYYAQDYWGQGTTVTVSS
VL: DIVMTQTPLSLPVTPGEPASISCRSSQSIVSSWGNTYLEWYLQKPGQSPQLLIYKVSNRFSGVPDRFSGSGSGTDFTLKISRVEAEDVGVYYCFQGSHVPWTFGQGTKVEIKR
As for B17, the EC50 in test [1] is 9.38 nM; in test [2] it was 3.83 nM.

B18: P27612716 (antibody, V domains shown)
VH: EVQLVESGGGLVQPGGSLRLSCAASGFSLSTPGMGVWWIRQAPGKGLEWLADIWWDDNKYTNPSLKSRLTISKDNAKNSLYLQMNSLRAEDTAVYYCARRANYGNPYYAQDYWGQGTTVTVSS
VL: DIVMTQTPLSLPVTPGEPASISCRSSQSIVSSWGNTYLEWYLQKPGQSPQLLIYKVSNRFSGVPDRFSGSGSGTDFTLKISRVEAEDVGVYYCFQGSHVPWTFGQGTKVEIKR
For the molecule B18, the EC50 in test [1] came out at 10.9 nM; in test [2], 6.13 nM.

B19: P27632716 (antibody, V domains shown)
VH: QVTLKESGPALVKPTQTLTLTCTFSGFSLSTPGMGVWWIRQPPGEALEWLADIWWDDNKYTNPSLKSRLTISKDTSKNQVVLTMTNMDPVDTATYYCARRANYGNPYYAQDYWGQGTTVTVSS
VL: DIVMTQTPLSLPVTPGEPASISCRSSQSIVSSWGNTYLEWYLQKPGQSPQLLIYKVSNRFSGVPDRFSGSGSGTDFTLKISRVEAEDVGVYYCFQGSHVPWTFGQGTKVEIKR
On to B19, for which the EC50 in test [1] amounted to 3.04 nM; in test [2], 5.05 nM.

B20: P27662716 (antibody, V domains shown)
VH: QVTLKESGPALVKPTQTLTLTCTFSGFSLSTPGMGVWWIRQPSGEGLEWLADIWWDDNKYTNPSLKSRLTISKDTSKNQVVLTMTNMDPVDTATYYCARRANYGNPYYAQDYWGQGTTVTVSS
VL: DIVMTQTPLSLPVTPGEPASISCRSSQSIVSSWGNTYLEWYLQKPGQSPQLLIYKVSNRFSGVPDRFSGSGSGTDFTLKISRVEAEDVGVYYCFQGSHVPWTFGQGTKVEIKR
On to B20, for which the EC50 in test [1] is 9.81 nM; in test [2], 9.77 nM.

Values taken from patent publication US20230257453A1 (published 2023).
